Assay [1] concerns the target mouse TrkB, endogenous on mouse cortical neurons and mouse embryonic stem cell line (mouse) (UniProt P15209). Kind of assay: cell-based or functional assay.
Assay [2] deals with human TrkB (tropomyosin receptor kinase B) expressed on CHO reporter cells (human) (UniProt Q16620). Put plainly: cell-based or functional assay.
UniProt Q16620, sequence (Q16620 32-822): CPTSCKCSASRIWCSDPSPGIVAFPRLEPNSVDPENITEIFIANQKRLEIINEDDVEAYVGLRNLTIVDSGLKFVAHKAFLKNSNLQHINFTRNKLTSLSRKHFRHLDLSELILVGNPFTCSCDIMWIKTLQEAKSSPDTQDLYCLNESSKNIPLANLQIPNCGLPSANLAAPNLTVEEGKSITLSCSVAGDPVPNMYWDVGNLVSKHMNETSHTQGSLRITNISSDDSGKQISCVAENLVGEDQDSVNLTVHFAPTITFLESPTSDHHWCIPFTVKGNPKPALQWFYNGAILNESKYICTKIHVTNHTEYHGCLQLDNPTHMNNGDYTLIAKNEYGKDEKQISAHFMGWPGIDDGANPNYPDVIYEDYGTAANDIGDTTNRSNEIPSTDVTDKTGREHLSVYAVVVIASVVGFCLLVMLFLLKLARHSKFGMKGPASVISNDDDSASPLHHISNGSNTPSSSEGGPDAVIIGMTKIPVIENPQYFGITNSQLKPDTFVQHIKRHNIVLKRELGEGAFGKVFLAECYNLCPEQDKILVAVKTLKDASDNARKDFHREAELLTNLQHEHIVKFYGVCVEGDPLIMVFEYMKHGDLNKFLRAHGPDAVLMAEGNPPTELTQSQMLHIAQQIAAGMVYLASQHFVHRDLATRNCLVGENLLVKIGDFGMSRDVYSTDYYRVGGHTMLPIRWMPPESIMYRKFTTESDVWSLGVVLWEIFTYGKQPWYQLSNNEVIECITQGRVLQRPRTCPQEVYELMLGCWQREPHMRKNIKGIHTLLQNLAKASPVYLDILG

UniProt P15209, sequence (P15209 32-821): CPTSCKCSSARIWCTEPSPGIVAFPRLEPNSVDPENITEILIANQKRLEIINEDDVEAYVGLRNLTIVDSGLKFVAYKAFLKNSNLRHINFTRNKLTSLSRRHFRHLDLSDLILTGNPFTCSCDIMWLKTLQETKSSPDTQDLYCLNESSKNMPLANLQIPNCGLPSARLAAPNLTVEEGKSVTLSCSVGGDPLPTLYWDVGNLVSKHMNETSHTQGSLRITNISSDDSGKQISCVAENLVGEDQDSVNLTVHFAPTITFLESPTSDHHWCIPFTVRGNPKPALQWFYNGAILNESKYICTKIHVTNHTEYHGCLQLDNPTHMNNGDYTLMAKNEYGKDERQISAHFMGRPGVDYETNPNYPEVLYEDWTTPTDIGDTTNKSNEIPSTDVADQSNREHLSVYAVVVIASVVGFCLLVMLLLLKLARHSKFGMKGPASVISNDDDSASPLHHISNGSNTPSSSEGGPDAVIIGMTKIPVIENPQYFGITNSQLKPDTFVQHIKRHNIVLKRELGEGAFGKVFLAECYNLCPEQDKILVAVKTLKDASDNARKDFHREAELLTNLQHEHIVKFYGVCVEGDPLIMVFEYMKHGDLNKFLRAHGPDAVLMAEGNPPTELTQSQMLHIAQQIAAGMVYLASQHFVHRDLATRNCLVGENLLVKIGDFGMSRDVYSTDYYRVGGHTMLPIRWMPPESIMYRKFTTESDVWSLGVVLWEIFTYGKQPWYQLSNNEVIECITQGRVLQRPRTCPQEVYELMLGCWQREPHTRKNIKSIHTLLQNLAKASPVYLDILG

“brain derived neurotrophic factor (BDNF) (from UniProt P23560 129-247) (ligand)” came in with a TrkB phosphorylation in mouse embryonic stem cell line in assay [1] of 2 nM. Also, the signaling in human TrkB reporter cell in assay [2] was found to be 2 nM.
